How the values were obtained:
[1] = substrate: Cc1cc(=O)oc2cc(O[C@@H]3O[C@H](CO)[C@@H](O)[C@H](O)[C@H]3O)ccc12; assay: purified protein, by the assay type; assay type: biochemical, human; settings: other: recombinant enzyme in the media, pH 5.9, 100 mM potassium phosphate, 0.15% Triton X-100, 0.125% sodium taurocholate, 37.0 °C
Description: For pH profile and inhibition studies, glucocerebrosidase activity was measured using 100 mM potassium phosphate buffer containing 0.15% Triton X-100, 2.5 μl of β-D-[1-^14 C] glucocerebroside (7.5 mg/ml in sodium taurocholate at 50 mg/ml), and the sample in the total volume of 200 ul. Preincubations with conduritol-B-epoxide were for 30 min at 37° C. […] Purification of recombinant glucocerebrosidase was also monitored using 4MUGP.

[2] = substrate: Cc1cc(=O)oc2cc(O[C@@H]3O[C@H](CO)[C@@H](O)[C@H](O)[C@H]3O)ccc12; assay: purified protein, by the assay type; settings: other: recombinant enzyme in the cell pellet, pH 5.9, 100 mM potassium phosphate, 0.15% Triton X-100, 0.125% sodium taurocholate, 37.0 °C

Protein | Km [1] [mM] | Km [2] [mM]
recombinant human glucocerebrosidase produced in baculovirus expression system (SF9 cells), culture media enzyme (Homo sapiens) (protein, made in house; host or cells: Spodoptera frugiperda SF9 cells, recombinant baculovirus (AcNPV, pAc373/GC)) ARPCIPKSFGYSSVVCVCNATYCDSFDPPTFPALGTFSRYESTRSGRRMELSMGPIQANHTGTGLLLTLQPEQKFQKVKGFGGAMTDAAALNILALSPPAQNLLLKSYFSEEGIGYNIIRVPMASCDFSIRTYTYADTPDDFQLHNFSLPEEDTKLKIPLIHRALQLAQRPVSLLASPWTSPTWLKTNGAVNGKGSLKGQPGDIYHQTWARYFVKFLDAYAEHKLQFWAVTAENEPSAGLLSGYPFQCLGFTPEHQRDFIARDLGPTLANSTHHNVRLLMLDDQRLLLPHWAKVVLTDPEAAKYVHGIAVHWYLDFLAPAKATLGETHRLFPNTMLFASEACVGSKFWEQSVRLGSWDRGMQYSHSIITNLLYHVVGWTDWNLALNPEGGPNWVRNFVDSPIIVDITKDTFYKQPMFYHLGHFSKFIPEGSQRVGLVASQKNDLDAVALMHPDGSAVVVVLNRSSKDVPLTIKDPAVGFLETISPGYSIHTYLWRRQ | 3.3 | 
recombinant human glucocerebrosidase produced in baculovirus expression system (SF9 cells), cell pellet enzyme (Homo sapiens) (protein) ARPCIPKSFGYSSVVCVCNATYCDSFDPPTFPALGTFSRYESTRSGRRMELSMGPIQANHTGTGLLLTLQPEQKFQKVKGFGGAMTDAAALNILALSPPAQNLLLKSYFSEEGIGYNIIRVPMASCDFSIRTYTYADTPDDFQLHNFSLPEEDTKLKIPLIHRALQLAQRPVSLLASPWTSPTWLKTNGAVNGKGSLKGQPGDIYHQTWARYFVKFLDAYAEHKLQFWAVTAENEPSAGLLSGYPFQCLGFTPEHQRDFIARDLGPTLANSTHHNVRLLMLDDQRLLLPHWAKVVLTDPEAAKYVHGIAVHWYLDFLAPAKATLGETHRLFPNTMLFASEACVGSKFWEQSVRLGSWDRGMQYSHSIITNLLYHVVGWTDWNLALNPEGGPNWVRNFVDSPIIVDITKDTFYKQPMFYHLGHFSKFIPEGSQRVGLVASQKNDLDAVALMHPDGSAVVVVLNRSSKDVPLTIKDPAVGFLETISPGYSIHTYLWRRQ |  | 3.6

Reference: US5879680A, “Cloned DNA for synthesizing unique glucocerebrosidase” (The United States of America as represented by the …, priority 1995, dated 1999)
